Data published in patent publication US20100211325A1.
Residue numbers refer to the chain shown, from its start. Numbers in names are those of the source.

Experiments:
[1] = target: Laminin 511/521 (LM511/521) (UniProt O15230); assay: ELISA, Lu protein captured, 5 nM LM511/521, against native Lu gp or D1+2+3+4
[2] = target: Laminin 511/521 (LM511/521) (UniProt O15230); assay: SPR (Biacore), Lu protein captured, 10 nM LM511/521, against native Lu gp or D1+2+3+4
[3] = target: Laminin 511/521 (LM511/521) (UniProt O15230); assay: SPR (Biacore) of FIG. 6e, 100 µl injection of 10 nM LM511/521 at 30 µl/min
[4] = target: Laminin 511/521 (LM511/521) (UniProt O15230); assay: ELISA of FIG. 3c, 0.05 nM Lu gpFc captured by anti-Fc, LM511/521 added, anti-laminin detection
[5] = target: Laminin 511/521 (LM511/521) (UniProt O15230); assay: not given
[6] = target: Laminin 511/521 (LM511/521) (UniProt O15230); assay: SPR (Biacore X), Lu gpFc captured on protein A chip (40 RU), 100 µl injection of 10 nM LM511/521, total change in RU
[7] = target: Laminin 511/521 (LM511/521) (UniProt O15230); assay: ELISA of FIG. 6d, 0.05 nM Lu protein, LM511/521 added, anti-laminin detection
[8] = target: Laminin 511/521 (LM511/521) (UniProt O15230); assay: electron tomography (Protein Tomography) of an equimolar mixture of Lu gpFc and LM511/521
[9] = target: Laminin 511/521 (LM511/521) (UniProt O15230); assay: ELISA, 0.05 nM Lu gpFc captured by anti-human Fc, 5 nM LM511/521, anti-laminin detection
[10] = target: Laminin 511/521 (LM511/521) (UniProt O15230); assay: cell-based or functional assay

B1: Lu gpFc domain deletion protein D1+2+3b (domains 1, 2 and 3, ending L354EL-…-Fc) (Fc fusion, not shown: a dimerising Fc or GST)
chain: EVRLSVPPLVEVMRGKSVILDCTPTGTHDHYMLEWFLTDRSGARPRLASAEMQGSELQVTMHDTRGRSPPYQLDSQGRLVLAEAQVGDERDYVCVVRAGAAGTAEATARLNVFAKPEATEVSPNKGTLSVMEDSAQEIATCNSRNGNPAPKITWYRNGQRLEVPVEMNPEGYMTSRTVREASGLLSLTSTLYLRLRKDDRDASFHCAAHYSLPEGRHGRLDSPTFHLTLHYPTEHVQFWVGSPSTPAGWVREGDTVQLLCRGDGSPSPEYTLFRLQDEQEEVLNVNLEGNLTLEGVTRGQSGTYGCRVEDYDAADDVQLSKTLELRVAYLNSPQTSQA
Q: B1 was tested. Which % of the binding of native Lu gp (ELISA) [1] did it give?
A: 68%

Q: What about the % of the binding of native Lu gp (Biacore) [2] of the same binder?
A: 42%

B2: Native Lu gpFc fusion protein (five extracellular domains of human Lutheran glycoprotein fused to Fc) (Fc fusion, not shown: a dimerising Fc or GST)
chain: EVRLSVPPLVEVMRGKSVILDCTPTGTHDHYMLEWFLTDRSGARPRLASAEMQGSELQVTMHDTRGRSPPYQLDSQGRLVLAEAQVGDERDYVCVVRAGAAGTAEATARLNVFAKPEATEVSPNKGTLSVMEDSAQEIATCNSRNGNPAPKITWYRNGQRLEVPVEMNPEGYMTSRTVREASGLLSLTSTLYLRLRKDDRDASFHCAAHYSLPEGRHGRLDSPTFHLTLHYPTEHVQFWVGSPSTPAGWVREGDTVQLLCRGDGSPSPEYTLFRLQDEQEEVLNVNLEGNLTLEGVTRGQSGTYGCRVEDYDAADDVQLSKTLELRVAYLDPLELSEGKVLSLPLNSSAVVNCSVHGLPTPALRWTKDSTPLGDGPMLSLSSITFDSNGTYVCEASLPTVPVLSRTQNFTLLVQGSPELKTAEIEPKADGSWREGDEVTLICSARGHPDPKLSWSQLGGSPAEPIPGRQGWVSSSLTLKVTSALSRDGISCEASNPHGNKRHVFHFGTVSPQTSQA
Q: Which total change in RU [3] does the source give for B2 here?
A: 129 RU

Q: And the OD450 [4]?
A: 0.95 OD450

Q: What about the Kd [5] of the same binder?
A: 7.9 nM

Q: And the koff [5]?
A: 0.0126 s⁻¹

Q: What about the kon [5] of the same binder?
A: 1.6e+06 M⁻¹ s⁻¹

Q: And the Biacore Δ RUs [6]?
A: 115 RU

Q: What about the OD450 [7] of the same binder?
A: 0.99 OD450

Q: What about the % of LM511/521 molecules bound to Lu gpFc [8] of the same binder?
A: 50 to 60%

Q: And the ELISA % of native Lu gpFc [9]?
A: 100%

B3: Lu gpFc E132A/D133A (Fc fusion, not shown: a dimerising Fc or GST)
chain: B2 chain with E132A, D133A
Q: Which results are given for B3?
A: Biacore Δ RUs [6]: 57.3 RU; ELISA % of native Lu gpFc [9]: 69.4%

B4: Lu gpFc E180A (Fc fusion, not shown: a dimerising Fc or GST)
chain: B2 chain with E180A
Q: For B4, which Biacore Δ RUs [6] is on record?
A: 78.3 RU

Q: What about the ELISA % of native Lu gpFc [9] of the same binder?
A: 104%

B5: Human Lutheran glycoprotein on cells (K562 transfectant expressing Lu gp; late stage erythroblasts) (receptor)
chain: EVRLSVPPLVEVMRGKSVILDCTPTGTHDHYMLEWFLTDRSGARPRLASAEMQGSELQVTMHDTRGRSPPYQLDSQGRLVLAEAQVGDERDYVCVVRAGAAGTAEATARLNVFAKPEATEVSPNKGTLSVMEDSAQEIATCNSRNGNPAPKITWYRNGQRLEVPVEMNPEGYMTSRTVREASGLLSLTSTLYLRLRKDDRDASFHCAAHYSLPEGRHGRLDSPTFHLTLHYPTEHVQFWVGSPSTPAGWVREGDTVQLLCRGDGSPSPEYTLFRLQDEQEEVLNVNLEGNLTLEGVTRGQSGTYGCRVEDYDAADDVQLSKTLELRVAYLDPLELSEGKVLSLPLNSSAVVNCSVHGLPTPALRWTKDSTPLGDGPMLSLSSITFDSNGTYVCEASLPTVPVLSRTQNFTLLVQGSPELKTAEIEPKADGSWREGDEVTLICSARGHPDPKLSWSQLGGSPAEPIPGRQGWVSSSLTLKVTSALSRDGISCEASNPHGNKRHVFHFGTVSPQTSQAGVAVMAVAVSVGLLLLVVAVFYCVRRKGGPCCRQRREKGAPPPGEPGLSHSGSEQPEQTGLLMGGASGGARGGSGGFGDEC
Q: For B5, which cell adhesion assay: % of cells bound to coated laminin [10] is on record?
A: 70 to 85%
